Test results published in the supplement of paper PMC12458215.
± gives the uncertainty stated by the source.

Tested on: HEK293T
Assay: plasma membrane surface immunostaining intensity (anti-HA, deep receptor scanning) (arbitrary fluorescence units); higher = higher plasma membrane expression

| Sequence | plasma membrane surface immunostaining intensity (GPCR class: A (Olfactory)) | plasma membrane surface immunostaining intensity (GPCR class: A) | further results |
| --- | --- | --- | --- |
| MENVTTMNEFLLLGLTGVQELQPFFFGIFLIIYLINLIGNGSILVMVVLEPQLHSPMYFFLGNLSCLDISYSSVTLPKLLVNLVCSRRAISFLGCITQLHFFHFLGSTEAILLAIMAFDRFVAICNPLRYTVIMNPQVCILLAAAAWLISFFYALMHSVMTAHLSFCGSQKLNHFFYDVKPLLELACSDTLLNQWLLSIVTGSISMGAFFLTLLSCFYVIGFLLFKNRSCRILHKALSTCASHFMVVCLFYGPVGFTYIRPASATSMIQDRIMAIMYSAVTPVLNPLIYTLRNKEVMMALKKIFGRKLFKDWQQHH [OR12D3] | 148 ± 34 |  |  |
| MASSTTRGPRVSDLFSGLPPAVTTPANQSAEASAGNGSVAGADAPAVTPFQSLQLVHQLKGLIVLLYSVVVVVGLVGNCLLVLVIARVRRLHNVTNFLIGNLALSDVLMCTACVPLTLAYAFEPRGWVFGGGLCHLVFFLQPVTVYVSVFTLTTIAVDRYVVLVHPLRRRISLRLSAYAVLAIWALSAVLALPAAVHTYHVELKPHDVRLCEEFWGSQERQRQLYAWGLLLVTYLLPLLVILLSYVRVSVKLRNRVVPGCVTQSQADWDRARRRRTFCLLVVIVVVFAVCWLPLHVFNLLRDLDPHAIDPYAFGLVQLLCHWLAMSSACYNPFIYAWLHDSFREELRKLLVAWPRKIAPHGQNMTVSVVI [PRLHR] |  | 5220 ± 340 |  |
| MQMADAATIATMNKAAGGDKLAELFSLVPDLLEAANTSGNASLQLPDLWWELGLELPDGAPPGHPPGSGGAESADTEARVRILISVVYWVVCALGLAGNLLVLYLMKSMQGWRKSSINLFVTNLALTDFQFVLTLPFWAVENALDFKWPFGKAMCKIVSMVTSMNMYASVFFLTAMSVTRYHSVASALKSHRTRGHGRGDCCGRSLGDSCCFSAKALCVWIWALAALASLPSAIFSTTVKVMGEELCLVRFPDKLLGRDRQFWLGLYHSQKVLLGFVLPLGIIILCYLLLVRFIADRRAAGTKGGAAVAGGRPTGASARRLSKVTKSVTIVVLSFFLCWLPNQALTTWSILIKFNAVPFSQEYFLCQVYAFPVSVCLAHSNSCLNPVLYCLVRREFRKALKSLLWRIASPSITSMRPFTATTKPEHEDQGLQAPAPPHAAAEPDLLYYPPGVVVYSGGRYDLLPSSSAY [RXFP3] |  | 979 ± 290 |  |
| MRPPSPLPARWLCVLAGALAWALGPAGGQAARLQEECDYVQMIEVQHKQCLEEAQLENETIGCSKMWDNLTCWPATPRGQVVVLACPLIFKLFSSIQGRNVSRSCTDEGWTHLEPGPYPIACGLDDKAASLDEQQTMFYGSVKTGYTIGYGLSLATLLVATAILSLFRKLHCTRNYIHMHLFISFILRAAAVFIKDLALFDSGESDQCSEGSVGCKAAMVFFQYCVMANFFWLLVEGLYLYTLLAVSFFSERKYFWGYILIGWGVPSTFTMVWTIARIHFEDYGCWDTINSSLWWIIKGPILTSILVNFILFICIIRILLQKLRPPDIRKSDSSPYSRLARSTLLLIPLFGVHYIMFAFFPDNFKPEVKMVFELVVGSFQGFVVAILYCFLNGEVQAELRRKWRRWHLQGVLGWNPKYRHPSGGSNGATCSTQVSMLTRVSPGARRSSSFQAEVSLV [VIPR1] |  |  | plasma membrane surface immunostaining intensity (GPCR class: B): 5730 ± 200 |
| MPVGKLVFNQSEPTEFVFRAFTTATEFQVLLFLLFLLLYLMILCGNTAIIWVVCTHSTLRTPMYFFLSNLSFLELCYTTVVVPLMLSNILGAQKPISLAGCGAQMFFFVTLGSTDCFLLAIMAYDRYVAICHPLHYTLIMTRELCTQMLGGALGLALFPSLQLTALIFTLPFCGHHQEINHFLCDVPPVLRLACADIRVHQAVLYVVSILVLTIPFLLICVSYVFITCAILSIRSAEGRRRAFSTCSFHLTVVLLQYGCCSLVYLRPRSSTSEDEDSQIALVYTFVTPLLNPLLYSLRNKDVKGALRSAIIRKAASDAN [OR10Q1] | 243 ± 67 |  |  |
| MSGESMNFSDVFDSSEDYFVSVNTSYYSVDSEMLLCSLQEVRQFSRLFVPIAYSLICVFGLLGNILVVITFAFYKKARSMTDVYLLNMAIADILFVLTLPFWAVSHATGAWVFSNATCKLLKGIYAINFNCGMLLLTCISMDRYIAIVQATKSFRLRSRTLPRSKIICLVVWGLSVIISSSTFVFNQKYNTQGSDVCEPKYQTVSEPIRWKLLMLGLELLFGFFIPLMFMIFCYTFIVKTLVQAQNSKRHKAIRVIIAVVLVFLACQIPHNMVLLVTAANLGKMNRSCQSEKLIGYTKTVTEVLAFLHCCLNPVLYAFIGQKFRNYFLKILKDLWCVRRKYKSSGFSCAGRYSENISRQTSETADNDNASSFTM [CCR6] |  | 418 ± 33 |  |
